The text below walks through data of ChEMBL document CHEMBL1157152, “Kinetic parameters and recognition of thymidine analogues with varying functional groups by thymidine phosphorylase” (Bioorg Med Chem, 2008).

Substrate in series [1]: Cc1cn([C@H]2C[C@H](O)[C@@H](CO)O2)c(=O)[nH]c1=O
Kind of series: (§1) Activity of Escherichia coli thymidine phosphorylase.

Substrate in series [2]: Cc1cn([C@H]2CC[C@@H](CO)O2)c(=O)[nH]c1=O
The description is as §1.

Substrate in series [3]: Cc1cn([C@H]2C[C@H](O)[C@@H](C)O2)c(=O)[nH]c1=O
The description is as §1.

B1: Thymidine phosphorylase (Escherichia coli K-12), P07650 (protein)
chain: MFLAQEIIRKKRDGHALSDEEIRFFINGIRDNTISEGQIAALAMTIFFHDMTMPERVSLTMAMRDSGTVLDWKSLHLNGPIVDKHSTGGVGDVTSLMLGPMVAACGGYIPMISGRGLGHTGGTLDKLESIPGFDIFPDDNRFREIIKDVGVAIIGQTSSLAPADKRFYATRDITATVDSIPLITASILAKKLAEGLDALVMDVKVGSGAFMPTYELSEALAEAIVGVANGAGVRTTALLTDMNQVLASSAGNAVEVREAVQFLTGEYRNPRLFDVTMALCVEMLISGKLAKDDAEARAKLQAVLDNGKAAEVFGRMVAAQKGPTDFVENYAKYLPTAMLTKAVYADTEGFVSEMDTRALGMAVVAMGGGRRQASDTIDYSVGFTDMARLGDQVDGQRPLAVIHAKDENNWQEAAKAVKAAIKLADKAPESTPTVYRRISE
For B1, the Km amounted to 2.5 mM in series [1], 32 mM in series [2] and 10 mM in series [3]. For the same protein, the results for the Vmax in series [1], in series [2] and in series [3] were 5.2 mM/min, 0.014 mM/min and 3.4 mM/min, respectively.
